Results as given in publication PMC4297519 (Nature, 2014).

Molecular target: the molecule itself
Assay: crystal structure

B1: human CEACAM1 IgV domain (GST tag removed) (domain or fragment)
chain: QLTTESMPFNVAEGKEVLLLVHNLPQQLFGYSWYKGERVDGNRQIVGYAIGTQQATPGPANSGRETIYPNASLLIQNVTQNDTGFYTLQVIKSDLVNEEATGQFHVY
  binding result: binds
